These results are taken from paper doi:10.1101/2021.05.20.444958.

The test system of the series is His6-DnaA (Escherichia coli K-12?). Description: EMSA.

In turn, iraD upstream region, 672 bp displayed a Kd of 42 nM.
